Patent US20210268070A1, “Use of Immunomodulators to Control Infection and Stimulate Healing in Normal and Diabetic Wounds” (priority 2018, published 2021)

Tests used:
[1] = test system: diabetic uninfected wounds; test: Wound healing in diabetic uninfected wounds; format: in vivo, db/db mice; conditions: FIG. 14
From the text: FIG. 14 illustrates CCL3 enhances wound healing in diabetic uninfected wounds.
(§1) As discussed above immunomodulatory therapies enhance infection control in both normal and diabetic models. FIGS. 11A-11C illustrate that CCL3 increases infection control (11A) increases collagen deposition (11B) and enhances wound healing (11C) in diabetic wounds. Immunomodulators may also be used to enhance wound healing in uninfected diabetic wounds.
(§2) Implant surgery and wound surgery and surgical site infection are performed according to the following method. On the day of surgery, all mice are anesthetized by an intraperitoneal injection of a ketamine/xylazine mixture (90 mg/kg ketamine+5 mg/kg xylazine for mice). The back of the animals is shaved using an electric shave and scrubbed with alcohol swabs 3 times, a topical antiseptic solution (Hibiclens; chlorhexidine gluconate) is applied to the skin. The surgical procedures are performed with sterile instruments, sterile surgical gloves, and aseptic techniques as follows. For wound surgical procedure, a sterile biopsy punch (5-7 mm diameter) is used to punch through the full thickness of the back skin below the shoulder blades. Four 5-7 mm skin wounds are made on the back of each mouse. Wounds placed in this area cannot be reached by the animals and therefore are protected from self-licking. […]

diabetic wounds = test: Collagen deposition and wound healing in infected diabetic wounds; format: in vivo, db/db mice; conditions: P. aeruginosa PA103 10^3 infected, compared to PBS
From the text: FIGS. 11A-11C illustrate that CCL3 increases infection control (11A), collagen deposition (11B) and enhances wound healing (11C) in diabetic wounds. P. aeruginosa PA103 10^3N=4; Significance determined as compared to PBS *<0.05, **p<0.01, ***p<0.001.
as §1
as §2, with “mouse.” for “mouse. Wounds placed in this area cannot be reached by the animals and therefore are protected from self-licking.”

B1: Chemokine (C-C motif) ligand 3 (protein, listed as Homo sapiens)
chain: MQVSTAALAVLLCTMALCNQFSASLAADTPTACCFSYTSRQIPQNFIADYFETSSQCSKPGVIFLTKRSRQVCADPSEEWVQKYVSDLELSA
notes: class 1 immunomodulator
- wound healing in diabetic uninfected wounds [1]: enhances
- collagen deposition in diabetic wounds (diabetic wounds; FIG. 11B): increases
- wound healing in diabetic wounds (diabetic wounds; FIG. 11C): enhances
